Source: PMC12384571

Assays:
[1] = target: hGHbp ECD (Homo sapiens) (UniProt P10912); assay: SPR; conditions: cited from earlier work
[2] = target: Human FcRn (neonatal Fc receptor for IgG) (human) (UniProt P55899); assay: ITC; 15 uM FcRn in the sample cell, titrated with 100 uM mAb from the syringe (9 injections of 3 uL); 25 °C; 1 x PBS, pH 6.0; independent fit model
Sequence of UniProt P55899 (P55899 whole entry, looked up, tested part not stated): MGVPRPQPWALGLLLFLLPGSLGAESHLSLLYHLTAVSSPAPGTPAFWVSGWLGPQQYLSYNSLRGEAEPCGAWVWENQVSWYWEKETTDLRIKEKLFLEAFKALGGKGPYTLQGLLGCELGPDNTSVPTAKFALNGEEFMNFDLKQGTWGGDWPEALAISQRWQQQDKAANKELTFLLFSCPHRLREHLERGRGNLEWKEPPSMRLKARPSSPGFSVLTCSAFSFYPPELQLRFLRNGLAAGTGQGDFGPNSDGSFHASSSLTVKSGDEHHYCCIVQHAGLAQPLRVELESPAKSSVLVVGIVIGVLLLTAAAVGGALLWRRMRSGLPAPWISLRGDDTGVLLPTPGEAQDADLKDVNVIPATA

Sequence of UniProt P10912 (P10912 19-256): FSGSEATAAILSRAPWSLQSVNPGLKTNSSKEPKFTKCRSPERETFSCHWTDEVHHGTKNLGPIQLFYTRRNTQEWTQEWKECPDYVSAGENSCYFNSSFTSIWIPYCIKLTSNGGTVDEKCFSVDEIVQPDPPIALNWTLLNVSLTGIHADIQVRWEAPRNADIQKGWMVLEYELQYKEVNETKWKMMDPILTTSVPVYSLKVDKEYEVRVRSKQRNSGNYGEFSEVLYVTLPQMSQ

Substance	Kd [1] [nM]	dH [2] [kcal/mol]
hGHwt (from UniProt P01241)	1.2	–
YTE mutant IgG mAb (IgGA-YTE) (antibody)	–	-12
wildtype IgG mAb (IgGAwt) (antibody)	–	-5.5
